The results in this text go back to US20150274841A1 (DYAX, published 2015).

Assay [1] has as its target T1, plasma kallikrein catalytic domain Mutant 2 (R551A, Q553A, Y555A, T558A, R560A) (human, UniProt P03952 391-638).
T1 construct: Expressed in Pichia pastoris
The experiment in a line: Ki,app; IgG inhibition of PKal catalytic domain cleavage of a substrate peptide, Morrison fit. How it is done:
(§1) Briefly, PKal and a Fab at various concentrations are incubated together for 1 hour at 30° C. A substrate peptide (cleavable by PKal) is then added to this PKal-Fab mixture. The rate of substrate peptide cleavage/proteolysis is then measured, and plotted against the concentrations of the Fab. This plot is then fit to the Morrison equation, which calculates the K_{i,app} value. The results thus obtained are shown in FIGS. 5A-5D and Table 3 below:
(§2) The inhibitory activity of X115-F02 against the wild-type PKal and the mutants were carried out using the method described in Example 3 above and the K_{i,app} values were determined.

Assay [2] addresses T2, plasma kallikrein catalytic domain Mutant 1 (S478A, N481A, S506A, Y507A) (human, UniProt P03952 391-638).
T2 construct: Expressed in Pichia pastoris
The experiment in a line: enzyme inhibition assay: rate (F/s) of substrate peptide cleavage by PKal against [IgG] (nM), fitted to the Morrison equation; apparent Ki (Ki,app). How it is done:
as §1, §2

Assay [3] has as its target T3, wild type plasma kallikrein catalytic domain (recombinant, Pichia pastoris) (human, UniProt P03952 391-638).
T3 construct: also called wild-type PKal
The description is as above. How it is done:
as §1, §2

The target of assay [4] is T1, plasma kallikrein catalytic domain …. The description is as above. How it is done:
as §1, §2

Assay [5] has as its target T4, plasma kallikrein catalytic domain Mutant 4 (N396A, S398A, W399A) (human, UniProt P03952 391-638).
T4 construct: Expressed in Pichia pastoris
The description is as above. How it is done:
as §1, §2

Assay [6] has as its target T5, human plasma kallikrein (PKal) (human, UniProt P03952 20-638).
T5 construct: Active PKal is cleaved at the marked R/I site into two disulfide-linked chains; also called human Pkal; active PKal
The experiment in a line: enzyme inhibition assay: rate (F/s) of substrate peptide cleavage by PKal against [Fab] (nM), fitted to the Morrison equation; apparent Ki (Ki,app); Table 3 prints it rounded, 14.7 nM.

Assay [7] deals with T5, human plasma kallikrein (PKal). The experiment in a line: Ki,app; Fab inhibition of PKal cleavage of a substrate peptide, Morrison fit. How it is done:
(§3) Briefly, PKal and a Fab at various concentrations are incubated together for 1 hour at 30° C. A substrate peptide (cleavable by PKal) is then added to this PKal-Fab mixture. The rate of substrate peptide cleavage/proteolysis is then measured, and plotted against the concentrations of the Fab. This plot is then fit to the Morrison equation, which calculates the K_{i,app} value. The results thus obtained are shown in FIGS. 5A-5D and Table 3 below: […]

Assay [8] has the same target. Description: enzyme inhibition assay: rate (F/s) of substrate peptide cleavage by PKal against [Fab] (nM), fitted to the Morrison equation; apparent Ki (Ki,app); Table 3 prints it rounded, 1405.6 nM.
Assay [9] has the same target. Description: enzyme inhibition assay: rate (F/s) of substrate peptide cleavage by PKal against [Fab] (nM), fitted to the Morrison equation; apparent Ki (Ki,app); Table 3 prints 1.1 nM. How it is done:
as §3

Assay [10] has the same target. Description: enzyme inhibition assay: rate (F/s) of substrate peptide cleavage by PKal against [Fab] (nM), fitted to the Morrison equation; apparent Ki (Ki,app); Table 3 prints it rounded, 2.2 nM. How it is done:
as §3

Assay [11] shares this target. Description: enzyme inhibition assay: rate (F/s) of substrate peptide cleavage by PKal against [Fab] (nM), fitted to the Morrison equation; apparent Ki (Ki,app); Table 3 prints 0.33 nM. How it is done:
as §3

For assay [12] the target is unchanged. Description: enzyme inhibition assay: rate (F/s) of substrate peptide cleavage by PKal against [2930] (pM), fitted to the Morrison equation; apparent Ki (Ki,app); no unit stands beside the value, pM is the unit of the concentration axis; Table 3 prints 0.06 nM. How it is done:
as §3

T5 sequence (P03952 20-638 limits assumed): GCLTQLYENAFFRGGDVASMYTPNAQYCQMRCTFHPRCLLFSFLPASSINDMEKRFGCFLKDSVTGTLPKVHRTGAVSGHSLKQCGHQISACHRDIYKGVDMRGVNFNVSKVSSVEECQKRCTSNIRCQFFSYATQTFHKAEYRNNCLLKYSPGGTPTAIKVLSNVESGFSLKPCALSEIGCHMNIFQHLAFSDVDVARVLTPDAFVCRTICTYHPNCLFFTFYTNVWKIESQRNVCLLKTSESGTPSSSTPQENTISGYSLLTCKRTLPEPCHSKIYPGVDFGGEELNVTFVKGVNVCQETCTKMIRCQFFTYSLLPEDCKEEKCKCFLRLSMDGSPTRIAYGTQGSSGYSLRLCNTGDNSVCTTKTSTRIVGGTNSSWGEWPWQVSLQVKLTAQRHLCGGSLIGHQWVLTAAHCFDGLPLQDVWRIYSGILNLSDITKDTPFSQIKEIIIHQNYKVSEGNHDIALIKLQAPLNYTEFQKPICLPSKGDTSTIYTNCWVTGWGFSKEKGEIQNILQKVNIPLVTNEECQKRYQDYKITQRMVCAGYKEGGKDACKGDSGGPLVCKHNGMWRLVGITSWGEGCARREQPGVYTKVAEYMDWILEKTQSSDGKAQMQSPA
T1 sequence (P03952 391-638 R551A/Q553A/Y555A/T558A/R560A): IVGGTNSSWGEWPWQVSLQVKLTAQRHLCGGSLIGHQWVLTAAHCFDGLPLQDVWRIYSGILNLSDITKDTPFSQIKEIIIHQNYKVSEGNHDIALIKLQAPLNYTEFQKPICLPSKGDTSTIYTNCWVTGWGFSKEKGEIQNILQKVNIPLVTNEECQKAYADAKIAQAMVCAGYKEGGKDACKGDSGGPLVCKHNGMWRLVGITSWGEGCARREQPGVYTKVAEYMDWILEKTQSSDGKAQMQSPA
T4 sequence (P03952 391-638 N396A/S398A/W399A): as the sequence (P03952 391-638 R551A/Q553A/Y555A/T558A/R560A) above, with N6A, S8A, W9A, A161R, A163Q, A165Y, A168T, A170R counted along it
T2 sequence (P03952 391-638 S478A/N481A/C503S/S506A/K507A limits assumed): as the sequence (P03952 391-638 R551A/Q553A/Y555A/T558A/R560A) above, with S88A, N91A, C113S, S116A, K117A, A161R, A163Q, A165Y, A168T, A170R counted along it
T3 sequence (P03952 391-638): as the sequence (P03952 391-638 R551A/Q553A/Y555A/T558A/R560A) above, with A161R, A163Q, A165Y, A168T, A170R counted along it

B1: X115-F02 (antibody, human IgG1, kappa, V domains shown)
VH: EVQLLESGGGLVQPGGSLRLSCAASGFTFSHYIMMWVRQAPGKGLEWVSGIYSSGGITVYADSVKGRFTISRDNSKNTLYLQMNSLRAEDTAVYYCAYRRIGVPRRDEFDIWGQGTMVTVSS
VL: DIQMTQSPSTLSASVGDRVTITCRASQSISSWLAWYQQKPGKAPKLLIYKASTLESGVPSRFSGSGSGTEFTLTISSLQPDDFATYYCQQYNTYWTFGQGTKVEIKR
notes: also called mutant X115-F02
As for B1, the “fold reduction of potency (Ki,app) against wild-type PKal” value in [1] is around 65 fold. For the same molecule, the Ki came to 0.14 nM in [2], 0.09 nM in assay [3], 5.9 nM in [4] and 0.1 nM in assay [5].

B2: X133-F10 (Fab, V domains shown)
VH: EVQLLESGGGLVQPGGSLRLSCAASGFTFSHYIMMWVRQAPGKGLEWVSGIYSSGGITVYADSVKGRFTISRDNSKNTLYLQMNSLRAEDTAVYYCAYRRTGLPRRDAFDIWGQGTMVTVSS
VL: DIQMTQSPSTLSASVGDRVTITCRASQSISSWLAWYQQKPGKAPNLLIYKASTLESGVPSRFSGSGSGTEFTLTISSLQPDDFATYYCQQYNTYWTFGQGTKVEIK
B2: the Ki in [6] and in [7] was 14.7 nM in each case.

B3: M0200-B01 (Fab, V domains shown)
VH: EVQLLESGGGLVQPGGSLRLSCAASGFTFSHYIMMWVRQAPGKGLEWVSGIYSSGGITVYADSVKGRFTISRDNSKNTLYLQMNSLRAEDTAVYYCAYRRTGIPRRDAFDSWGQGTMVTVSS
VL: DIQMTQSPSTLSASVGDRVTITCRASQSISSWLAWYQQKPGKAPNLLIYKASTLESGVPSRFSGSGSGTEFTLTISSLQPDDFATYYCQQYNTYWTFGQGTKVEIK
B3 registered a Ki in [7] of 3.6 nM.

B4: M0202-E03 (Fab, V domains shown)
VH: EVQLLESGGGLVQPGGSLRLSCAASGFTFSHYIMMWVRQAPGKGLEWVSGIYSSGGITVYADSVKGRFTISRDNSKNTLYLQMNSLRAEDTAVYYCAYRRTGIPRRDAFEIWGQGTMVTVSS
VL: DIQMTQSPSTLSASVGDRVTITCRASQSISSWLAWYQQKPGKAPNLLIYKASTLESGVPSRFSGSGSGTEFTLTISSLQPDDFATYYCQQYNTYWTFGQGTKVEIK
As to B4, in assay [7], the Ki stood at 2 nM.

B5: M0199-B01 (Fab, V domains shown)
VH: EVQLLESGGGLVQPGGSLRLSCAASGFTFSHYIMMWVRQAPGKGLEWVSGIYSSGGITVYADSVKGRFTISRDNSKNTLYLQMNSLRAEDTAVYYCAYRRTGIPRRDAFDNWGQGTMVTVSS
VL: DIQMTQSPSTLSASVGDRVTITCRASQSISSWLAWYQQKPGKAPNLLIYKASTLESGVPSRFSGSGSGTEFTLTISSLQPDDFATYYCQQYNTYWTFGQGTKVEIK
In turn, B5 displayed a Ki in assay [7] of 1.6 nM.

B6: X133-G05 (Fab, V domains shown)
VH: EVQLLESGGGLVQPGGSLRLSCAASGFTFSHYIMMWVRQAPGKGLEWVSGIYSSGGITVYADSVKGRFTISRDNSKNTLYLQMNSLRAEDTAVYYCAYRRTGSPRRDAFDIWGQGTMVTVSS
VL: DIQMTQSPSTLSASVGDRVTITCRASQSISSWLAWYQQKPGKAPNLLIYKASTLESGVPSRFSGSGSGTEFTLTISSLQPDDFATYYCQQYNTYWTFGQGTKVEIK
As for B6, the Ki in assay [7] and in assay [8] was 1410 nM each time.

B7: X135-A03 (Fab, V domains shown)
VH: EVQLLESGGGLVQPGGSLRLSCAASGFTFSHYIMMWVRQAPGKGLEWVSGIYSSGGITVYADSVKGRFTISRDNSKNTLYLQMNSLRAEDTAVYYCAYRRTGIPRRDEFDIWGQGTMVTVSS
VL: DIQMTQSPSTLSASVGDRVTITCRASQSISSWLAWYQQKPGKAPNLLIYKASTLESGVPSRFSGSGSGTEFTLTISSLQPDDFATYYCQQYNTYWTFGQGTKVEIK
notes: HC CDR3 variant of M0162-A04, tested as Fab
Take B7: the Ki turned out to be 1.1 nM in [7] and 1.25 nM in [9].

B8: X133-B02 (Fab, V domains shown)
VH: EVQLLESGGGLVQPGGSLRLSCAASGFTFSHYIMMWVRQAPGKGLEWVSGIYSSGGITVYADSVKGRFTISRDNSKNTLYLQMNSLRAEDTAVYYCAYRRIGIPRRDAFDIWGQGTMVTVSS
VL: DIQMTQSPSTLSASVGDRVTITCRASQSISSWLAWYQQKPGKAPNLLIYKASTLESGVPSRFSGSGSGTEFTLTISSLQPDDFATYYCQQYNTYWTFGQGTKVEIK
notes: as for B7
Regarding B8, the Ki in assay [10] was determined as 2.22 nM; in assay [7], 2.2 nM.

B9: X133-D06 (Fab, V domains shown)
VH: EVQLLESGGGLVQPGGSLRLSCAASGFTFSHYIMMWVRQAPGKGLEWVSGIYSSGGITVYADSVKGRFTISRDNSKNTLYLQMNSLRAEDTAVYYCAYRRIGIPRRDEFDIWGQGTMVTVSS
VL: DIQMTQSPSTLSASVGDRVTITCRASQSISSWLAWYQQKPGKAPNLLIYKASTLESGVPSRFSGSGSGTEFTLTISSLQPDDFATYYCQQYNTYWTFGQGTKVEIK
notes: as for B7
In the case of B9, the values for the Ki in assay [11] and in [7] were 0.301 nM and 0.33 nM, respectively.

B10: M0199-A08 (Fab, V domains shown)
VH: EVQLLESGGGLVQPGGSLRLSCAASGFTFSHYIMMWVRQAPGKGLEWVSGIYSSGGITVYADSVKGRFTISRDNSKNTLYLQMNSLRAEDTAVYYCAYRRIGVPRRDEFDIWGQGTMVTVSS
VL: DIQMTQSPSTLSASVGDRVTITCRASQSISSWLAWYQQKPGKAPNLLIYKASTLESGVPSRFSGSGSGTEFTLTISSLQPDDFATYYCQQYNTYWTFGQGTKVEIK
notes: also called M199-A08
Regarding B10, the Ki in [7] came to 0.06 nM; in assay [12], 0.099 nM.
